According to paper PMC6123711, “Conformational signatures in β-arrestin2 reveal natural biased agonism at a G-protein-coupled receptor” (Communications Biology, 2018):
Marks after values point to notes of the source that are not given here.

Legend:
[1] = tested on: β-arrestin1–Galr2 interaction (Galr2); test: β-Arrestin1 recruitment using NanoBit technology; assay type: cell-based, human; details: for Log(τ/KA), β-Arrestin1: HEK293 cells, luminescence at 5 min after agonist, operational model (Eq. 2); for Log(τ/KA), β-Arrestin1 / ΔLog(τ/KA), β-Arrestin1: mean ± s.e.m. of three experiments in triplicate; for ΔLog(τ/KA), β-Arrestin1: normalized to Galanin (reference agonist), in parenthesis
Text: The β-arrestin recruitment assays were developed based on a structural complementation assay using NanoBit technology. Briefly, NanoBit technology is a system that basically consists of Nano luciferase (Nluc), which is a small protein that catalyzes a bright luminescent reaction. To create a complementation system, Nluc was separated into two subunits that individually produce very little enzymatic activity. […] Because of this low affinity for each other, these two fragments can bind when they are in close proximity. The interaction between the LgBit and the SmBit can be driven by the interactions of the fusion partners, allowing them to study protein–protein interaction in live cells. As the interaction is reversible, the association and dissociation can be monitored. There is no lag time in the loss of luminescence, and so the immediate detection allows for accurate assessment of temporal dynamics. […] To accurately monitor β-arrestin recruitment, four plasmid combinations between LgBit and SmBit with the fusion partners Galr2 and β-arrestins were screened. The plasmid combination with the highest luminescence signal was chosen for further studies (Fig. 2a, Supplementary Fig. 1). Using data points at 5 min after ligand stimulation, we obtained dose–response curves that corresponded to β-arrestin1/2 recruitment (Fig. 2d, e, Supplementary Fig. 2).
Fig. 2 The effect of different endogenous ligands in β-arrestin1/2 recruitment. a Schematic representation of the structural complementation assay used to monitor β-arrestin1/2–Galr2 interactions. Kinetic traces of β-arrestin1 (b) and β-arrestin2 (c) recruitment after Galr2 activation with 1 μM of three different agonists. Dose–response curves for recruitment of β-arrestin1 (d), and β-arrestin2 (e). Luminescence signal intensity obtained at 5 min after agonist stimulation was measured. […] The results are expressed as mean ± s.e.m. of three experiments performed in triplicate; each triplicate was averaged before calculating the s.e.m. The arrows indicate the time at which the cells were treated with the different ligands
(§1) Quantification of bias between each pathway was performed using Galanin as a reference ligand. All incubations for the different signaling assays were performed in serum-free medium to prevent peptide degradation.
HEK293 cells were obtained from the American Type Culture Collection (ATCC, CRL-1573; Manassas, VA, USA). They were maintained in Dulbecco’s modified Eagle’s medium (DMEM) supplemented with 10% fetal bovine serum (FBS), 100 U/ml penicillin G, and 100 μg/ml streptomycin (Invitrogen; Carlsbad, CA, USA). During the experiments, the cells were tested for mycoplasma using a Universal Mycoplasma Detection Kit (ATCC). At 1 day before transfection, the cells were seeded in 96-well plates at a density of 2.5 × 10^4 cells per well. A mixture containing 50 ng β-arrestin construct containing the LgBit or SmBit and 50 ng Galr2 containing one of the two domains of Nluc and 0.2 μl Lipofectamine 2000 (Invitrogen) was prepared and added to each well. We tested four β-arrestin-Galr2 spatial orientations. […] After a 10-min incubation, 25 μl substrate (furimazine) was added and once every minute subsequent luminescence measurements were taken for 10 min for signal stabilization. A total of 10 μl ligand was then added to each well and luminescence measurements were recorded immediately and once every minute for 1 h (Synergy 2 Multi-Mode Microplate Reader BioTek, Winooski, VT, USA).

Galr2 [2] = test: Quantification of biased agonism between two pathways (operational model); assay type: cell-based, human; details: for ΔΔLog(τ/KA) (bias factor), Gαq-dependent-pErk1/2/β-arrestin1: Gαq-dependent-pErk1/2 vs β-arrestin1; for ΔΔLog(τ/KA) (bias factor), SRE-Luc/clathrin:β-arrestin2: SRE-Luc vs clathrin:β-arrestin2; for ΔΔLog(τ/KA) (bias factor), SRE-Luc/β-arrestin1: SRE-Luc vs β-arrestin1; for ΔΔLog(τ/KA) (bias factor), SRE-Luc/β-arrestin2: SRE-Luc vs β-arrestin2; for ΔΔLog(τ/KA) (bias factor), Total inositol phosphate/clathrin:β-arrestin2: total inositol phosphate vs clathrin:β-arrestin2; for ΔΔLog(τ/KA) (bias factor), Total inositol phosphate/β-arrestin1: total inositol phosphate vs β-arrestin1; for ΔΔLog(τ/KA) (bias factor), Total inositol phosphate/β-arrestin2: total inositol phosphate vs β-arrestin2; for ΔΔLog(τ/KA) (bias factor), β-Arrestin-dependent-pErk1/2/β-arrestin2: β-arrestin-dependent-pErk1/2 vs β-arrestin2
Protocol: To determine whether differential signaling at Galr2 (Figs. 2 and 5) may be translated into biased agonism, we used the operational model of agonism (Eq. 2) to calculate the logarithm of the transduction coefficient (log(τ/KA)) for each agonist at each pathway (Table 1)[4]. We used Galanin as a reference ligand during all experiments. […] We also calculated bias factors for G-protein-dependent pErk1/2 and β-arrestins.
as §1
To calculate biased factors and compare agonist profiles, the dose–response data were fit to the following form of the operational model of agonism:[42]2 Y=Basal+Em-basalτ/KA^n[A]^n/[A]^nτ/KA^n+1+[A]/KA^n where Em is the maximal possible response of the system, Basal is the basal level of response, KA represents the equilibrium dissociation constant of the agonist (A), and τ is an index of the signaling efficacy of the agonist that is defined as RT/KE. RT is the total number of receptors, KE is the coupling efficiency of each agonist-occupied receptor, and n is the slope of the transducer function that links occupancy to response. One assumption of the analysis is that the transduction machinery used for a given cellular pathway are the same for all agonists, such that the Em and transducer slope (n) are shared between agonists. The data for all compounds for each pathway were fit globally, to determine values of KA and τ. Biased agonism was quantified as previously described. […] The relative bias can then be calculated for each agonist at the two different signaling pathways by subtracting the Δlog(τ/KA) of one pathway from the other to give a ΔΔlog(τ/KA) value, which is a measure of bias. […] All transduction ratios (log(τ/KA)) parameters were estimated as logarithms. All results were expressed as mean ± s.e.m. values. We performed a Brown–Forsythe test (Graph Pad Prism 7.0) to assure ourselves of equal variances between the compared parameters.

Galr2 [3] = details: cited from earlier work
Text: (§2) G-protein-coupled receptors (GPCRs) are the largest family of cell surface receptors that communicate extracellular stimuli to the cell interior[1]. Biased ligands are of particular interest because they offer the possibility to design a novel class of therapeutic agents. In some GPCRs, biased ligands that preferentially activate G-protein-dependent signaling have therapeutic potential. […] Most descriptions of biased ag ...

[4] = tested on: galanin receptor 3 (Galr3); details: cited from earlier work
Text: as §2

[5] = reference agonist Galanin, mean ± s.e.m. of three experiments in triplicate

Molecule | Log(τ/KA), β-Arrestin1 [1] | ΔLog(τ/KA), β-Arrestin1 [1] | overall signaling at Galr2 (Galr2 [2]; G-protein and β-arrestin1/2) | ΔΔLog(τ/KA) (bias factor), Gαq-dependent-pErk1/2/β-arrestin1 (Galr2 [2]; [5]) | ΔΔLog(τ/KA) (bias factor), Gαq-dependent-pErk1/2/β-arrestin2 (Galr2 [2]; Gαq-dependent-pErk1/2 vs β-arrestin2, reference agonist Galanin, mean ± s.e.m. of three experiments in triplicate) | ΔΔLog(τ/KA) (bias factor), SRE-Luc/clathrin:β-arrestin2 (Galr2 [2]; [5]) | ΔΔLog(τ/KA) (bias factor), SRE-Luc/β-arrestin1 (Galr2 [2]; [5]) | ΔΔLog(τ/KA) (bias factor), SRE-Luc/β-arrestin2 (Galr2 [2]; [5]) | ΔΔLog(τ/KA) (bias factor), Total inositol phosphate/clathrin:β-arrestin2 (Galr2 [2]; [5]) | ΔΔLog(τ/KA) (bias factor), Total inositol phosphate/β-arrestin1 (Galr2 [2]; [5]) | ΔΔLog(τ/KA) (bias factor), Total inositol phosphate/β-arrestin2 (Galr2 [2]; [5]) | ΔΔLog(τ/KA) (bias factor), β-Arrestin-dependent-pErk1/2/β-arrestin2 (Galr2 [2]; [5]) | affinity toward Galr2 (Galr2 [3]) | affinity toward Galr3 [4] | agonism in β-arrestin1 recruitment ([1]; dose–response, data at 5 min after ligand stimulation, compared with Galanin) | biased agonism, pErk1/2 vs β-arrestin isoforms (Galr2 [2]; Gαq-dependent pErk1/2 vs the two β-arrestin isoforms, relative to Galanin) | biased agonism, β-arrestin-dependent pErk1/2 vs β-arrestin2 recruitment (Galr2 [2]; relative to Galanin) | biased agonism (Galr2 [2]; relative to Galanin, Gαq-protein-dependent signaling vs β-arrestins and β-arrestin2–clathrin) | activation of Galr2 (Galr2 [3]) | activation of Galr3 [4]
Galanin [reference compound] | 7.18 ± 0.01 | 0.00 ± 0.01 | robust signaling toward G-protein and β-arrestin1/2 | 0.00 ± 0.22 | 0.00 ± 0.04 | 0.00 ± 0.17 | 0.00 ± 0.002 | 0.00 ± 0.02 | 0.00 ± 0.19 | 0.00 ± 0.03 | 0.00 ± 0.05 | 0.00 ± 0.38 | high affinities | low affinity | – | – | – | – | – | –
Spexin (peptide, UniProt Q9BT56 27-116, looked up, Spexin, endogenous peptide ligand of Galr2 and Galr3; synthesized by AnyGen) Spexin: APQRLLERRNWTPQAMLYLKGAQGRRFISDQSRRKDLSDRPLPERRSPNPQLLTIPEAATILLASLQKSPEDEEKNFDQTRFLEDSLLNW | 6.60 ± 0.08 | −0.60 ± 0.01 | – | 1.10 ± 0.29^b | – | 1.88 ± 0.07^b | 0.63 ± 0.06^b | 0.77 ± 0.02^b | 1.84 ± 0.12^b | 0.60 ± 0.09^b | 0.73 ± 0.09^b | 1.40 ± 0.16^a | – | – | partial agonists | biased signaling toward Gαq-dependent pErk1/2 over the two β-arrestin isoforms | biased agonism was also detected toward β-arrestin-dependent pErk1/2 over β-arrestin2 recruitment | biased agonism toward Gαq-protein-dependent signaling over β-arrestins and β-arrestin2–clathrin interactions | activates Galr2 and Galr3 with high affinities | activates Galr2 and Galr3 with high affinities
